Measured values from publication PMC11417404, “The molecular mechanism for TERRA recruitment and annealing to telomeres”.

Biological target: RAD51 (UniProt Q06609 1-339)
Assay: EMSA; 1 mM Mg2+, 1 mM ATP; highest affinity, unbound band gone at lowest RAD51 (1.5 uM); RAD51 EMSA: 50 mM Tris-HCl pH 7.5, 50 mM KCl, 1 mM MgCl2, 1 mM ATP, 37 C 10 min; 0.8% TBE agarose + 10 mM KCl at 4 C. Single molecule: T50 (10 mM Tris-HCl pH 7.5, 50 mM NaCl); imaging 10 mM Tris-HCl pH 7.5, 100 mM NaCl, 10% glycerol. Supplementary Table 2 kd values are for TERRA/DNA annealing to (protein-bound) duplex, not …
Details: protein: recombinant; label: Cy3; G4, single strand

Sequence of RAD51 (Q06609 whole entry): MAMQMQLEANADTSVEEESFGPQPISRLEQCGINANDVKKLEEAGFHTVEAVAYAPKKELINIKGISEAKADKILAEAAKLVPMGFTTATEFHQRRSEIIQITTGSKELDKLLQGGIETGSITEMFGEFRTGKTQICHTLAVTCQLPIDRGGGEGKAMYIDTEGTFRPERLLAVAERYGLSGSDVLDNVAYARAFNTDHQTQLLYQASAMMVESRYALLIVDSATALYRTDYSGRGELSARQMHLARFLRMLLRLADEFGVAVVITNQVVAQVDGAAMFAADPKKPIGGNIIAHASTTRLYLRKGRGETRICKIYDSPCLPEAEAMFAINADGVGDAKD

## UGGCGACGGCAGCGAGGCUUAGGGUUAGGGUUAGGGUUAGGG (structured_RNA) [TERRA-18]
  binding result: binds
